These results are taken from patent US20190185581A1 (University of California, published 2019).

Experiment [1] concerns the target T1, catalytic domain of MMP-14 (cdMMP-14) (human, UniProt P50281 114-287, limits assumed, biotinylated (Sulfo-NHS-LC-Biotin) where immobilised via streptavidin). Briefly: cell-based or functional assay.
Experiment [2] deals with T1, catalytic domain of MMP-14 (cdMMP-14). Briefly: ELISA, Fab titrated on immobilised MMP-14 catalytic domain, anti-Fab-HRP.
Description: (§1) Bound Fabs were detected using the anti-Fab-HRP conjugate. The half-maximal effective concentration (EC₅₀) was calculated from a four-parametric logistic curve-fitting analysis.
Experiment [3] deals with catalytic domain of MMP-2 (human, UniProt P08253 115-449, limits assumed, biotinylated (Sulfo-NHS-LC-Biotin)). Briefly: ELISA, purified Fab at 50, 100, 250 and 500 nM on immobilised MMP catalytic domain, anti-Fab-HRP, OD450.
Chain of catalytic domain of MMP-2 (P08253 other isoform, or with tags, fused parts or gaps limits assumed): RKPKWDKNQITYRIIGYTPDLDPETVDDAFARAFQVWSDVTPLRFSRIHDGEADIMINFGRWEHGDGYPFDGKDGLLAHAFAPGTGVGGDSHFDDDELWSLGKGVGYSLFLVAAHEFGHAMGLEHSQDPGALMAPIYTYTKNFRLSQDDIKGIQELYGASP
Experiment [4] concerns the target T2, catalytic domain of MMP-9 (cdMMP-9) (human, UniProt P14780 107-443, limits assumed).
T2 sequence: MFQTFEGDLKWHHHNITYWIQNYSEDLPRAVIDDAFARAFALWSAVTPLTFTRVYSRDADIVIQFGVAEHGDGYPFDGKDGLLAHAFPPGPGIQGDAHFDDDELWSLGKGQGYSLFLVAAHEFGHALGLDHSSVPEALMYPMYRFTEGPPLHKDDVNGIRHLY
The experiment is described as above.

The target in experiment [5] is T1, catalytic domain of MMP-14 (cdMMP-14). Put plainly: cell-based or functional assay. The source holds these as a separate data set.
Experiment [6] has the same target. Briefly: ELISA, Fab titrated on immobilised biotin-cdMMP-14, anti-Fab-HRP.
Experiment [7] concerns the target T2, catalytic domain of MMP-9 (cdMMP-9). Briefly: competitive ELISA: Fab R2C14 at its IC50 concentration pre-incubated with soluble cdMMP-9, then added to a plate coated with 100 nM cdMMP-14; anti-Fab-HRP.
The target of experiment [8] is T1, catalytic domain of MMP-14 (cdMMP-14). Put plainly: cell-based or functional assay. The source holds these as a separate data set.
The target in experiment [9] is T2, catalytic domain of MMP-9 (cdMMP-9). Put plainly: competitive ELISA: Fab R2C5 at its IC50 concentration pre-incubated with soluble cdMMP-9, then added to a plate coated with 100 nM cdMMP-14; anti-Fab-HRP.
In experiment [10] the target is T3, Fab 3A2.
T3 construct: also called R3C9; not shown: His tag at the C-terminus of the heavy chain
Briefly: competitive ELISA: 10 nM Fab 3A2 pre-incubated with soluble MMP-14 (WT or mutant), then captured on immobilised wild-type MMP-14; anti-Fab-HRP.

The target of experiment [11] is T3, Fab 3A2. Briefly: competitive ELISA: 10 nM Fab 3A2 pre-incubated with soluble MMP-14 mutant, then captured on immobilised wild-type MMP-14; anti-Fab-HRP.
Description: as §1
In experiment [12] the target is T2, catalytic domain of MMP-9 (cdMMP-9). Put plainly: ELISA on MMP-2, MMP-9 and MMP-14 catalytic domains.
The target in experiment [13] is T1, catalytic domain of MMP-14 (cdMMP-14). Briefly: competitive ELISA: serially diluted n-TIMP-2 with Fab 3A2 fixed at 10 nM on biotinylated cdMMP-14 on streptavidin wells; bound Fab detected with anti-Fab-HRP; competitor: Fab 3A2.

B1: Fab 3E2 (Fab, V domains shown)
VH: EVQLVESGGGLVQPGGSLRLSCAASGFNIYYYSIHWVRQAPGKGLEWVASIYPYSSYTYYADSVKGRFTISADTSKNTAYLQMNSLRAEDTAVYYCARGIKGLVFTGSQMKMLRRGNYNWYVMDYWGQGTLVTVSS
VL: DIQMTQSPSSLSASVGDRVTITCRASQSVSSAVAWYQQKPGKAPKLLIYSASSLYSGVPSRFSGSRSGTDFTLTISSLQPEDFATYYCQQSSYSLITFGQGTKVEIKR
notes: not shown: His tag at the C-terminus of the heavy chain
Consider B1, for which the “IC50 by FRET Assay” value in experiment [1] turned out to be 42 nM. This molecule returned an EC50 in [2] of 47 nM. For the same molecule, the binding result in [3] and in [4] was “no binding (tested: 500 nM)” in each case.

B2: Fab R2C14 (Fab, V domains shown)
VH: EVQLVESGGGLVQPGGSLRLSCAASGFNIYSSSIHWVRQAPGKGLEWVASIYSYSGYTYYADSVKGRFTISADTSKNTAYLQMNSLRAEDTAVYYCARVSNRYNRSSASIAGLQLFRPYGMDYWGQGTLVTVSS
VL: DIQMTQSPSSLSASVGDRVTITCRASQSVSSAVAWYQQKPGKAPKLLIYSASSLYSGVPSRFSGSRSGTDFTLTISSLQPEDFATYYCQQSSYSLITFGQGTKVEIKR
B2: the “Inhibition potency (FRET IC50)” value in experiment [5] amounted to 10 nM. This molecule also gave an EC50 in [6] of 1200 nM. Moreover, the binding result in [7] is on record as “no binding (tested: about 4000 nM (log10(nM) about 3.6))”.

B3: Fab 3D9 (Fab, V domains shown)
VH: EVQLVESGGGLVQPGGSLRLSCAASGFNIYSSSIHWVRQAPGKGLEWVASIYSSYGYTYYADSVKGRFTISADTSKNTAYLQMNSLRAEDTAVYYCARRLMAYHGSCSSRLCQTAISPQRYAMDYWGQGTLVTVSS
VL: DIQMTQSPSSLSASVGDRVTITCRASQSVSSAVAWYQQKPGKAPKLLIYSASSLYSGVPSRFSGSRSGTDFTLTISSLQPEDFATYYCQQSSYSLITFGQGTKVEIKR
notes: as for B1
For B3, in experiment [8], the “IC50 of inhibition at neutral pH 7.5” value came out at 65 nM, the “IC50 of inhibition at pH 6.5” value was 10.5 nM and the “IC50 of inhibition at pH 8.5” value turned out to be 157 nM. Moreover, the “IC50 by FRET Assay” value in experiment [1] was found to be 61 nM. In addition, a half-maximal effect in [2] (EC50) was put at 6.4 nM. The binding result in experiment [3] is “no binding (tested: 500 nM)”. In addition, the binding result in experiment [4] is given as “no binding (tested: 500 nM)”.

B4: Fab 2B5 (Fab, V domains shown)
VH: EVQLVESGGGLVQPGGSLRLSCAASGFNLSYSSMHWVRQAPGKGLEWVASIYPYSGYTYYADSVKGRFTISADTSKNTAYLQMNSLRAEDTAVYYCARIGVNAWAVKMSQRMLATRGSGWYVMDYWGQGTLVTVSS
VL: DIQMTQSPSSLSASVGDRVTITCRASQSVSSAVAWYQQKPGKAPKLLIYSASSLYSGVPSRFSGSRSGTDFTLTISSLQPEDFATYYCQQSSSYPYSPITFGQGTKVEIKR
notes: as for B1
Consider B4, for which, in experiment [1], the “IC50 by FRET Assay” value came to 240 nM. The midpoint of the response in [2], the EC50, lay at 24 nM. The binding result in [3] and in experiment [4] was “no binding (tested: 500 nM)” each time.

B5: Fab R2C5 (Fab, V domains shown)
VH: EVQLVESGGGLVQPGGSLRLSCAASGFNLSSYYMHWVRQAPGKGLEWVASIYPYSSYTSYADSVKGRFTISADTSKNTAYLQMNSLRAEDTAVYYCARIMKIKRNSLKFRGFVPLQMQYVMDYWGQGTLVTVSS
VL: DIQMTQSPSSLSASVGDRVTITCRASQSVSSAVAWYQQKPGKAPKLLIYSASSLYSGVPSRFSGSRSGTDFTLTISSLQPEDFATYYCQQSYGLFTFGQGTKVEIKR
As for B5, the “Inhibition potency (FRET IC50)” value in [5] turned out to be 50 nM. This molecule came in with an EC50 in experiment [6] of 375 nM. Besides, the binding result in experiment [9] was “no binding (tested: about 4000 nM (log10(nM) about 3.6))”.

B6: MMP-14 catalytic domain mutant F198A (enzyme)
chain: not shown
As to B6, the “IC50 (read off the curve)” value with Fab 3A2 [10] was ~100 nM.

B7: MMP-14 catalytic domain mutant F204A (enzyme)
chain: not shown
Turning to B7, in the experiment with Fab 3A2 [10], the binding result is listed as “binds”.

B8: MMP-14 catalytic domain mutant F260A (enzyme)
chain: not shown
notes: also called F260A MMP-14 mutant
As to B8, in the experiment with Fab 3A2 [11], the binding result is “no binding (tested: about 2000 nM (log10(nM) 3.3))”.

B9: MMP-14 catalytic domain mutant Y203A (enzyme)
chain: not shown
For the molecule B9, the “IC50 (read off the curve)” value with Fab 3A2 [10] was ~100 nM.

B10: MMP-14 catalytic domain mutant N231A (enzyme)
chain: not shown
For B10, in the experiment with Fab 3A2 [10], the binding result was “binds”.

B11: MMP-14 catalytic domain mutant T190A (enzyme)
chain: not shown
For B11, the “IC50 (read off the curve)” value with Fab 3A2 [10] is ~100 nM.

B12: Fab 33D2 (Fab, V domains shown)
VH: EVQLVESGGGLVQPGGSLRLSCAASGFNLYYSSIHWVRQAPGKGLEWVAYISSYSGYTSYADSVKGRFTISADTSKNTAYLQMNSLRAEDTAVYYCARSKYGPASRQLASRTSWSGPRGKYGMDYWGQGTLVTVSS
VL: DIQMTQSPSSLSASVGDRVTITCRASQSVSSAVAWYQQKPGKAPKLLIYSASSLYSGVPSRFSGSRSGTDFTLTISSLQPEDFATYYCQQAYGSYLITFGQGTKVEIKR
notes: as for B1
Regarding B12, the “IC50 by FRET Assay” value in [1] stood at 420 nM. In experiment [12], the “Selectivity over MMP-2/-9 (ratio of Fab concentrations giving the same ELISA signal, MMP-2/-9 against MMP-14)” value worked out at 9.6 fold. This molecule also returned an EC50 in [2] of 120 nM.

B13: N-terminal inhibitory domain of tissue inhibitor of metalloproteinase-2 (n-TIMP-2) (other, UniProt P16035 27-153, looked up)
chain: CSCSPVHPQQAFCNADVVIRAKAVSEKEVDSGNDIYGNPIKRIQYEIKQIKMFKGPEKDIEFIYTAPSSAVCGVSLDVGGKKEYLIAGKAEGDGKMHITLCDFIVPWDTLSTTQKKSLNHRYQMGCE
notes: domain: N-terminal domain
As to B13, the “inhibitory IC50 (FRET peptide substrate)” value in [8] stood at 5.1 nM. Also, the “IC50 (read off the curve)” value in experiment [13] was ~30 nM.
